In publication PMC4409540 (Nature, 2015):

Target: the molecule itself
Test: cryo-EM structure

B1: MBP-tagged human TRPA1 (full-length) (natural protein, UniProt O75762 1-1119, looked up)
chain: MKRSLRKMWRPGEKKEPQGVVYEDVPDDTEDFKESLKVVFEGSAYGLQNFNKQKKLKRCDDMDTFFLHYAAAEGQIELMEKITRDSSLEVLHEMDDYGNTPLHCAVEKNQIESVKFLLSRGANPNLRNFNMMAPLHIAVQGMNNEVMKVLLEHRTIDVNLEGENGNTAVIIACTTNNSEALQILLKKGAKPCKSNKWGCFPIHQAAFSGSKECMEIILRFGEEHGYSRQLHINFMNNGKATPLHLAVQNGDLEMIKMCLDNGAQIDPVEKGRCTAIHFAATQGATEIVKLMISSYSGSVDIVNTTDGCHETMLHRASLFDHHELADYLISVGADINKIDSEGRSPLILATASASWNIVNLLLSKGAQVDIKDNFGRNFLHLTVQQPYGLKNLRPEFMQMQQIKELVMDEDNDGCTPLHYACRQGGPGSVNNLLGFNVSIHSKSKDKKSPLHFAASYGRINTCQRLLQDISDTRLLNEGDLHGMTPLHLAAKNGHDKVVQLLLKKGALFLSDHNGWTALHHASMGGYTQTMKVILDTNLKCTDRLDEDGNTALHFAAREGHAKAVALLLSHNADIVLNKQQASFLHLALHNKRKEVVLTIIRSKRWDECLKIFSHNSPGNKCPITEMIEYLPECMKVLLDFCMLHSTEDKSCRDYYIEYNFKYLQCPLEFTKKTPTQDVIYEPLTALNAMVQNNRIELLNHPVCKEYLLMKWLAYGFRAHMMNLGSYCLGLIPMTILVVNIKPGMAFNSTGIINETSDHSEILDTTNSYLIKTCMILVFLSSIFGYCKEAGQIFQQKRNYFMDISNVLEWIIYTTGIIFVLPLFVEIPAHLQWQCGAIAVYFYWMNFLLYLQRFENCGIFIVMLEVILKTLLRSTVVFIFLLLAFGLSFYILLNLQDPFSSPLLSIIQTFSMMLGDINYRESFLEPYLRNELAHPVLSFAQLVSFTIFVPIVLMNLLIGLAVGDIAEVQKHASLKRIAMQVELHTSLEKKLPLWFLRKVDQKSTIVYPNKPRSGGMLFHIFCFLFCTGEIRQEIPNADKSLEMEILKQKYRLKDLTFLLEKQHELIKLIIQKMEIISETEDDDSHCSFQDRFKKEQMEQRNSRWNTVLRAVKAKTHHLEP
stoichiometry N: 4
